First the molecules themselves.
T1: CD20 peptide on HLA-A*02:01 (human)
T1 peptide: SLFLGILSV

B1: TCR of SEQ ID NOs 175 and 148 (CDR3 alpha and CDR3 beta) (TCR)
alpha TRAV12-2 J-33 CDR3: AGIMDSNY
beta TRBV4-2 J2-7 CDR3: ASSHGNGYEQY
B2: TCR of SEQ ID NOs 181 and 155 (CDR3 alpha and CDR3 beta) (TCR)
alpha TRAV24 J-28 CDR3: AFMPGAGSYQLT
beta TRBV4-2 J2-7 CDR3: ASSQGLTYEQY
B3: TCR of SEQ ID NOs 179 and 153 (CDR3 alpha and CDR3 beta) (TCR)
alpha TRAV38-2/DV8 J-43 CDR3: AYASFDMR
beta TRBV13 J2-3 CDR3: ASSLGSANTQY
B4: TCR of SEQ ID NOs 177 and 150 (CDR3 alpha and CDR3 beta) (TCR)
alpha TRAV30 J-57 CDR3: GTQGGSEKLV
beta TRBV19 J2-7 CDR3: ATAPGLSYEQY
B5: TCR of SEQ ID NOs 180 and 154 (CDR3 alpha and CDR3 beta) (TCR)
alpha TRAV5 J-23 CDR3: AEWGQGGKLI
beta TRBV12-4 J2-7 CDR3: ASSPGLTYEQY

The target in this test is T1, CD20 peptide on HLA-A*02:01. In words: multimer staining.
As to B1, the binding result is “recognises”.

Turning to B2, the binding result is reported as “recognises”.

For B3, the binding result was “recognises”.

In the case of B4, the binding result was “recognises”.

Consider B5, for which the binding result is “recognises”.
